# Source: paper PMC9482650, “Quantitative fragmentomics allow affinity mapping of interactomes” (Nature Communications, 2022)
# T1: RHPN1, Q8TCX5
# T1 sequence (Q8TCX5 508-602, limits assumed, looked up): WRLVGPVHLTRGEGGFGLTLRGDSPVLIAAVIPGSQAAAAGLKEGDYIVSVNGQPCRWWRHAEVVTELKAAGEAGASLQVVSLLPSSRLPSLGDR
# T2: SIPA1L2, Q9P2F8
# T2 sequence (Q9P2F8 945-1036, limits assumed, looked up): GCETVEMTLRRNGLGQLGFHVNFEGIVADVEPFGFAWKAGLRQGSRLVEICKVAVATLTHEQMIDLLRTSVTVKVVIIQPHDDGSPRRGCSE
# T3: PARD3B_1, Q8TEW8
# T3 sequence (Q8TEW8 196-299, limits assumed, looked up): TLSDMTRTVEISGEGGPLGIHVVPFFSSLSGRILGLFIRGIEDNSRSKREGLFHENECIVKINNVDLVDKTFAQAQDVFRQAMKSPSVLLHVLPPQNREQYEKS
# T4: SHANK1, Q9Y566
# T4 sequence (Q9Y566 658-767, limits assumed, looked up): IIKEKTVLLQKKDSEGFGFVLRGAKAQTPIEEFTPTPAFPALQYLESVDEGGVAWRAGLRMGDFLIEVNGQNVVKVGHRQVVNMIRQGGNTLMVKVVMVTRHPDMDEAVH
# T5: LIN7C, Q9NUP9
# T5 sequence (Q9NUP9 88-185, limits assumed, looked up): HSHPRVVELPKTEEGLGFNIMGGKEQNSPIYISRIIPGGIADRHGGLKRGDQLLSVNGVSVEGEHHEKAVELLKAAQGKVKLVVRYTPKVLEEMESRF
# T6: MPDZ_12, O75970
# T6 sequence (O75970 1857-1958, limits assumed, looked up): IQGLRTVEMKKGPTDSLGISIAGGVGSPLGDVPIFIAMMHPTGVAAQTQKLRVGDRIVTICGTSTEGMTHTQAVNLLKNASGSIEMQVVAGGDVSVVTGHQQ
# T7: CARD11, Q9BXL7
# T7 sequence (Q9BXL7 662-765, limits assumed, looked up): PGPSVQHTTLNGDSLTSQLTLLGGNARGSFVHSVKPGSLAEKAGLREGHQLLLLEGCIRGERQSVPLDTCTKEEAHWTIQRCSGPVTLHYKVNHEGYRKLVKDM
# T8: GRIP1_4, Q9Y3R0
# T8 sequence (Q9Y3R0 467-571, limits assumed, looked up): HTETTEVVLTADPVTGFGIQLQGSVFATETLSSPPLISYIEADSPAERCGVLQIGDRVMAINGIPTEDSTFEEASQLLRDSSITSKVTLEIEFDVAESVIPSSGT
# B1: CD46, P15529 (peptide)
# chain: THREVKFTSL
# B2: NRXN3, Q9HDB5 (peptide)
# chain: QKNKDREYYV
# Target: NHERF2_2, Q15599
# Sequence (Q15599 142-238): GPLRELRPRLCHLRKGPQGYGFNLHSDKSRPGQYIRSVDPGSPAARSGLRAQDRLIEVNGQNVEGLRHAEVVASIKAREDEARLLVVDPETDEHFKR
# Experiment: holdup assay
# Parameters: key: below the threshold = too weak to quantify, mostly under pKd 3.1 to 4
# Conditions: plain residues with an end cap or a label only (N-terminal biotin on a linker: ado-ado)
row,pKd,Binder
1,4.36,B1
2,below the threshold,B2

# Target: Inadl_6, Q8NI35
# Sequence (Q8NI35 1058-1167): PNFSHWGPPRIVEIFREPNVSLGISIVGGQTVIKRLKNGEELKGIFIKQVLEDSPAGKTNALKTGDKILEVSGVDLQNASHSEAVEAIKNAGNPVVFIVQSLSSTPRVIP
# Experiment: holdup assay
# Parameters: key: below the threshold = too weak to quantify, mostly under pKd 3.1 to 4
# Conditions: plain residues with an end cap or a label only (N-terminal biotin on a linker: ado-ado)
row,pKd,Binder
1,3.7,B1
2,below the threshold,B2

# Target: MAGI2_2, Q86UL8
# Sequence (Q86UL8 410-522): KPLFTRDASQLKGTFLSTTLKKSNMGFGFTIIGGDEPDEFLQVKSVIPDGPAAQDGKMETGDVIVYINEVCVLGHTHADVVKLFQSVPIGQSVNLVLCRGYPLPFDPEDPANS
# Experiment: holdup assay
# Parameters: key: below the threshold = too weak to quantify, mostly under pKd 3.1 to 4
# Conditions: plain residues with an end cap or a label only (N-terminal biotin on a linker: ado-ado)
row,pKd,Binder
1,3.88,B1
2,4.32,B2

# Target: MAGI2_6, Q86UL8
# Sequence (Q86UL8 1141-1229): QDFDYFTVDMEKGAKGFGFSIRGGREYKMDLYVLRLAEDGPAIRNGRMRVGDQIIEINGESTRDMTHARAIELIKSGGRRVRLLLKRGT
# Experiment: holdup assay
# Parameters: key: below the threshold = too weak to quantify, mostly under pKd 3.1 to 4
# Conditions: plain residues with an end cap or a label only (N-terminal biotin on a linker: ado-ado)
row,pKd,Binder
1,4.59,B1
2,below the threshold,B2

# Target: GRIP2_4, Q9C0E4
# Sequence (Q9C0E4 446-548): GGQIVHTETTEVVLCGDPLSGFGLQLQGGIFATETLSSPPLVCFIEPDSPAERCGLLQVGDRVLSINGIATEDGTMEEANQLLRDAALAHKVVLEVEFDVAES
# Experiment: holdup assay
# Parameters: key: below the threshold = too weak to quantify, mostly under pKd 3.1 to 4
# Conditions: plain residues with an end cap or a label only (N-terminal biotin on a linker: ado-ado)
row,pKd,Binder
1,below the threshold,B1
2,below the threshold,B2

# Target: T1, RHPN1, Q8TCX5
# Experiment: holdup assay
# Parameters: key: below the threshold = too weak to quantify, mostly under pKd 3.1 to 4
# Conditions: plain residues with an end cap or a label only (N-terminal biotin on a linker: ado-ado)
row,pKd,Binder
1,4.48,B1
2,below the threshold,B2

# Target: Inadl_1, Q8NI35
# Sequence (Q8NI35 113-229): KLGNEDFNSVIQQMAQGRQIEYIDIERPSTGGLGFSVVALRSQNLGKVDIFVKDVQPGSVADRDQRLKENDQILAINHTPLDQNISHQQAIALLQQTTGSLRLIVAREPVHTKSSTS
# Experiment: holdup assay
# Parameters: key: below the threshold = too weak to quantify, mostly under pKd 3.1 to 4
# Conditions: plain residues with an end cap or a label only (N-terminal biotin on a linker: ado-ado)
row,pKd,Binder
1,below the threshold,B1
2,3.69,B2

# Target: FRMPD2_2, Q68DX3
# Sequence (Q68DX3 944-1038): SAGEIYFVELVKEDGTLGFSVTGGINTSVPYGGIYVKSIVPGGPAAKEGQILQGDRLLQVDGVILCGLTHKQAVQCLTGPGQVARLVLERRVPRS
# Experiment: holdup assay
# Parameters: key: below the threshold = too weak to quantify, mostly under pKd 3.1 to 4
# Conditions: plain residues with an end cap or a label only (N-terminal biotin on a linker: ado-ado)
row,pKd,Binder
1,below the threshold,B1
2,3.78,B2

# Target: LNX1_3, Q8TBB1
# Sequence (Q8TBB1 500-596): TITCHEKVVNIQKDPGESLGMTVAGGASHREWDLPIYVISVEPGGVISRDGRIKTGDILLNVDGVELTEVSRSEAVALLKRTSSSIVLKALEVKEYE
# Experiment: holdup assay
# Parameters: key: below the threshold = too weak to quantify, mostly under pKd 3.1 to 4
# Conditions: plain residues with an end cap or a label only (N-terminal biotin on a linker: ado-ado)
row,pKd,Binder
1,below the threshold,B1
2,4.09,B2

# Target: T2, SIPA1L2, Q9P2F8
# Experiment: holdup assay
# Parameters: key: below the threshold = too weak to quantify, mostly under pKd 3.1 to 4
# Conditions: plain residues with an end cap or a label only (N-terminal biotin on a linker: ado-ado)
row,pKd,Binder
1,below the threshold,B1
2,below the threshold,B2

# Target: NHERF4_1, Q86UT5-2
# Sequence (Q86UT5 other isoform, or with tags, fused parts or gaps): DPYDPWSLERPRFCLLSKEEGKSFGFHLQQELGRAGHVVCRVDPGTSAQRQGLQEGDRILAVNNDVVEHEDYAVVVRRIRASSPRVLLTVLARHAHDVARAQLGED
# Experiment: holdup assay
# Parameters: key: below the threshold = too weak to quantify, mostly under pKd 3.1 to 4
# Conditions: plain residues with an end cap or a label only (N-terminal biotin on a linker: ado-ado)
row,pKd,Binder
1,4.28,B1
2,below the threshold,B2

# Target: SNX27, Q96L92
# Experiment: holdup assay
# Parameters: key: below the threshold = too weak to quantify, mostly under pKd 3.1 to 4
# Conditions: plain residues with an end cap or a label only (N-terminal biotin on a linker: ado-ado)
row,pKd,Binder
1,4.35,B1
2,3.64,B2

# Target: DLG4_1, P78352
# Sequence (P78352 62-152): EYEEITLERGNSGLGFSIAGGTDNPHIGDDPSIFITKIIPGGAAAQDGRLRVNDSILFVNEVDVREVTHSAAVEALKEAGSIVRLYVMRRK
# Experiment: holdup assay
# Parameters: key: below the threshold = too weak to quantify, mostly under pKd 3.1 to 4
# Conditions: plain residues with an end cap or a label only (N-terminal biotin on a linker: ado-ado)
row,pKd,Binder
1,below the threshold,B1
2,below the threshold,B2

# Target: DLG1_3, Q12959
# Sequence (Q12959 457-571): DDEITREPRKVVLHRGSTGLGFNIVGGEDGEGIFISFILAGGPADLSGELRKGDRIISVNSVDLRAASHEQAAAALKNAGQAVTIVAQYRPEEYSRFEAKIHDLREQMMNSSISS
# Experiment: holdup assay
# Parameters: key: below the threshold = too weak to quantify, mostly under pKd 3.1 to 4
# Conditions: plain residues with an end cap or a label only (N-terminal biotin on a linker: ado-ado)
row,pKd,Binder
1,3.75,B1
2,below the threshold,B2

# Target: T3, PARD3B_1, Q8TEW8
# Experiment: holdup assay
# Parameters: key: below the threshold = too weak to quantify, mostly under pKd 3.1 to 4
# Conditions: plain residues with an end cap or a label only (N-terminal biotin on a linker: ado-ado)
row,pKd,Binder
1,4.24,B1
2,4.17,B2

# Target: T4, SHANK1, Q9Y566
# Experiment: holdup assay
# Parameters: key: below the threshold = too weak to quantify, mostly under pKd 3.1 to 4
# Conditions: plain residues with an end cap or a label only (N-terminal biotin on a linker: ado-ado)
row,pKd,Binder
1,4.39,B1
2,below the threshold,B2

# Target: T5, LIN7C, Q9NUP9
# Experiment: holdup assay
# Parameters: key: below the threshold = too weak to quantify, mostly under pKd 3.1 to 4
# Conditions: plain residues with an end cap or a label only (N-terminal biotin on a linker: ado-ado)
row,pKd,Binder
1,below the threshold,B1
2,3.59,B2

# Target: LDB3, O75112
# Sequence (O75112 1-94): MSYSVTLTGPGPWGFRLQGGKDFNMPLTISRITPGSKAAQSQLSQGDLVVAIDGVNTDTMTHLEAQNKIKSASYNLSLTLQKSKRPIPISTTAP
# Experiment: holdup assay
# Parameters: key: below the threshold = too weak to quantify, mostly under pKd 3.1 to 4
# Conditions: plain residues with an end cap or a label only (N-terminal biotin on a linker: ado-ado)
row,pKd,Binder
1,below the threshold,B1
2,below the threshold,B2

# Target: GRID2IP_2, A4D2P6
# Sequence (A4D2P6 272-370): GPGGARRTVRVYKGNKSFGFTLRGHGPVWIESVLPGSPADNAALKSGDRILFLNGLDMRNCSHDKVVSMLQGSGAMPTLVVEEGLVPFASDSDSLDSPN
# Experiment: holdup assay
# Parameters: key: below the threshold = too weak to quantify, mostly under pKd 3.1 to 4
# Conditions: plain residues with an end cap or a label only (N-terminal biotin on a linker: ado-ado)
row,pKd,Binder
1,4.95,B1
2,3.52,B2

# Target: Inadl_2, Q8NI35
# Sequence (Q8NI35 238-335): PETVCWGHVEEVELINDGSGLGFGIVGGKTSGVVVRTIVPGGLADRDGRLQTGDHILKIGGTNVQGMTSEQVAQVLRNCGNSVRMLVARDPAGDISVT
# Experiment: holdup assay
# Parameters: key: below the threshold = too weak to quantify, mostly under pKd 3.1 to 4
# Conditions: plain residues with an end cap or a label only (N-terminal biotin on a linker: ado-ado)
row,pKd,Binder
1,below the threshold,B1
2,4.97,B2

# Target: NHERF4_4, Q86UT5
# Sequence (Q86UT5 464-550): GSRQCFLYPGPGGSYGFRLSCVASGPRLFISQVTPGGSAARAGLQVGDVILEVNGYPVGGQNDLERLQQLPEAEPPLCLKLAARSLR
# Experiment: holdup assay
# Parameters: key: below the threshold = too weak to quantify, mostly under pKd 3.1 to 4
# Conditions: plain residues with an end cap or a label only (N-terminal biotin on a linker: ado-ado)
row,pKd,Binder
1,below the threshold,B1
2,below the threshold,B2

# Target: T6, MPDZ_12, O75970
# Experiment: holdup assay
# Parameters: key: below the threshold = too weak to quantify, mostly under pKd 3.1 to 4
# Conditions: plain residues with an end cap or a label only (N-terminal biotin on a linker: ado-ado)
row,pKd,Binder
1,below the threshold,B1
2,below the threshold,B2

# Target: T7, CARD11, Q9BXL7
# Experiment: holdup assay
# Parameters: key: below the threshold = too weak to quantify, mostly under pKd 3.1 to 4
# Conditions: plain residues with an end cap or a label only (N-terminal biotin on a linker: ado-ado)
row,pKd,Binder
1,below the threshold,B1
2,below the threshold,B2

# Target: HTRA2, O43464
# Sequence (O43464 355-458): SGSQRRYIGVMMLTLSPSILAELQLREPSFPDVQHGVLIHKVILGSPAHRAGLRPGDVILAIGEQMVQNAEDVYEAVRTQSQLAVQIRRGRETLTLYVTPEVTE
# Experiment: holdup assay
# Parameters: key: below the threshold = too weak to quantify, mostly under pKd 3.1 to 4
# Conditions: plain residues with an end cap or a label only (N-terminal biotin on a linker: ado-ado)
row,pKd,Binder
1,below the threshold,B1
2,4.02,B2

# Target: GORASP1, Q9BQQ3
# Sequence (Q9BQQ3 1-208): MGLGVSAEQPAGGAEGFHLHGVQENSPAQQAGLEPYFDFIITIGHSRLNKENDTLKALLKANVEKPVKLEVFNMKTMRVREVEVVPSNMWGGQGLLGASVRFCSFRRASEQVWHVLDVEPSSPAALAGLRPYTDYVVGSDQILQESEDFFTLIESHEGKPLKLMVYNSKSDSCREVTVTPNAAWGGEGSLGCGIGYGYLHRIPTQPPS
# Experiment: holdup assay
# Parameters: key: below the threshold = too weak to quantify, mostly under pKd 3.1 to 4
# Conditions: plain residues with an end cap or a label only (N-terminal biotin on a linker: ado-ado)
row,pKd,Binder
1,below the threshold,B1
2,4.33,B2

# Target: PTPN3, P26045
# Sequence (P26045 505-587): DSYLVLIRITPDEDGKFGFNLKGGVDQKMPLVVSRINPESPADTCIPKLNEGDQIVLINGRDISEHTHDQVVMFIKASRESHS
# Experiment: holdup assay
# Parameters: key: below the threshold = too weak to quantify, mostly under pKd 3.1 to 4
# Conditions: plain residues with an end cap or a label only (N-terminal biotin on a linker: ado-ado)
row,pKd,Binder
1,4.83,B1
2,4.37,B2

# Target: T8, GRIP1_4, Q9Y3R0
# Experiment: holdup assay
# Parameters: key: below the threshold = too weak to quantify, mostly under pKd 3.1 to 4
# Conditions: plain residues with an end cap or a label only (N-terminal biotin on a linker: ado-ado)
row,pKd,Binder
1,below the threshold,B1
2,below the threshold,B2

# Target: SCRIB_3, Q14160
# Sequence (Q14160 999-1103): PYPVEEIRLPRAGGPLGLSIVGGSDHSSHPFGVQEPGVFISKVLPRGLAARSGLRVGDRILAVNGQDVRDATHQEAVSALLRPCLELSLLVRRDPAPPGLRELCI
# Experiment: holdup assay
# Parameters: key: below the threshold = too weak to quantify, mostly under pKd 3.1 to 4
# Conditions: plain residues with an end cap or a label only (N-terminal biotin on a linker: ado-ado)
row,pKd,Binder
1,4.8,B1
2,below the threshold,B2

# Target: FRMPD4, Q14CM0
# Sequence (Q14CM0 67-160): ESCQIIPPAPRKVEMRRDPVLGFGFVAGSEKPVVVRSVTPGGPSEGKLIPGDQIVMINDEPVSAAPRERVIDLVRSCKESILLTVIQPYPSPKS
# Experiment: holdup assay
# Parameters: key: below the threshold = too weak to quantify, mostly under pKd 3.1 to 4
# Conditions: plain residues with an end cap or a label only (N-terminal biotin on a linker: ado-ado)
row,pKd,Binder
1,4.16,B1
2,4.4,B2
